Columns and labels:
tnip1_human TNIP1 = tnip1_human TNIP1 (UniProt Q15025)
zn639_human ZNF639 = zn639_human ZNF639 (UniProt Q9UID6)
kank2_human KANK2 = kank2_human KANK2 (UniProt Q63ZY3)
car10_human CARD10 = car10_human CARD10 (UniProt Q9BWT7)
zbt14_human ZBTB14 = zbt14_human ZBTB14 (UniProt O43829)
pick1_human PICK1 = pick1_human PICK1 (UniProt Q9NRD5)
thap1_human THAP1 = thap1_human THAP1 (UniProt Q9NVV9)
coha1_human COL17A1 = coha1_human COL17A1 (UniProt Q9UMD9)
cntrb_human CNTROB = cntrb_human CNTROB (UniProt Q8N137)
xrcc4_human XRCC4 = xrcc4_human XRCC4 (UniProt Q13426)
pnma5_human PNMA5 = pnma5_human PNMA5 (UniProt Q96PV4)
sp4_human SP4 = sp4_human SP4 (UniProt Q02446)
ppip1_human PSTPIP1 = ppip1_human PSTPIP1 (UniProt O43586)
msd4_human MSANTD4 = msd4_human MSANTD4 (UniProt Q8NCY6)
crcm_human MCC = crcm_human MCC (UniProt P23508)
trbp2_human TARBP2 = trbp2_human TARBP2 (UniProt Q15633)
tri37_human TRIM37 = tri37_human TRIM37 (UniProt O94972)
tbcd1_human TBC1D1 = tbcd1_human TBC1D1 (UniProt Q86TI0)
klh12_human KLHL12 = klh12_human KLHL12 (UniProt Q53G59)
syph_human SYP = syph_human SYP (UniProt P08247)
fads6_human FADS6 = fads6_human FADS6 (UniProt Q8N9I5)
rprm_human RPRM = rprm_human RPRM (UniProt Q9NS64)
mgst2_human MGST2 = mgst2_human MGST2 (UniProt Q99735)
snx2_human SNX2 = snx2_human SNX2 (UniProt O60749)
sft2a_human SFT2D1 = sft2a_human SFT2D1 (UniProt Q8WV19)
sng3_human SYNGR3 = sng3_human SYNGR3 (UniProt O43761)
CCDC43 = CCDC43 (UniProt Q86WV7)
flowr_human CACFD1 = flowr_human CACFD1 (UniProt Q9UGQ2)

Measured: effect of a mutation on the interaction

Sequence of sng3_human SYNGR3 (O43761 whole entry): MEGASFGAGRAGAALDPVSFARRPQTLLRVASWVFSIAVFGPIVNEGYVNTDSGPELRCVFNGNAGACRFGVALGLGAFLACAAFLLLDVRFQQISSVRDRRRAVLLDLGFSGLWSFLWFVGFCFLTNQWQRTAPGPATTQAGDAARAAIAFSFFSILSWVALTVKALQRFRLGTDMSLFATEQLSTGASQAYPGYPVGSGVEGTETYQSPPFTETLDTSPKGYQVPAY
Sequence of pick1_human PICK1 (Q9NRD5 whole entry): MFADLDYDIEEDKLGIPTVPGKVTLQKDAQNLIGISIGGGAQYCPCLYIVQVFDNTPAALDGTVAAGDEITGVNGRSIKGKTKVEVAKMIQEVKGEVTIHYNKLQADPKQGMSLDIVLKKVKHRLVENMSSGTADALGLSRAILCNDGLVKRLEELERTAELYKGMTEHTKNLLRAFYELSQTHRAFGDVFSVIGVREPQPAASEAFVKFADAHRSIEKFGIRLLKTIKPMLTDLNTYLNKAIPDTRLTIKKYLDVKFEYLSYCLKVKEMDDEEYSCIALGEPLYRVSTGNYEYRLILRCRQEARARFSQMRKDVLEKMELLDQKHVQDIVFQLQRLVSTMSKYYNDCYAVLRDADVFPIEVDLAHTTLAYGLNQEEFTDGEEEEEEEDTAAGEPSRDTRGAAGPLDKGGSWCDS
Sequence of syph_human SYP (P08247 whole entry): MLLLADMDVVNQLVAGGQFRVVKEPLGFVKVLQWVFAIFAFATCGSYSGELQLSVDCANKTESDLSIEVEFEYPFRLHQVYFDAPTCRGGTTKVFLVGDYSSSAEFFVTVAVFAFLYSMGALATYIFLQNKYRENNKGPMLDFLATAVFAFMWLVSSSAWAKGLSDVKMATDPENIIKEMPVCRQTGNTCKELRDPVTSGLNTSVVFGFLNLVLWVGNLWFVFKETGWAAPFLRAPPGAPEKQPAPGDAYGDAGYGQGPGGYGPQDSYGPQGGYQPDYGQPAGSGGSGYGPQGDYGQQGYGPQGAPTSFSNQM
Sequence of kank2_human KANK2 (Q63ZY3 whole entry): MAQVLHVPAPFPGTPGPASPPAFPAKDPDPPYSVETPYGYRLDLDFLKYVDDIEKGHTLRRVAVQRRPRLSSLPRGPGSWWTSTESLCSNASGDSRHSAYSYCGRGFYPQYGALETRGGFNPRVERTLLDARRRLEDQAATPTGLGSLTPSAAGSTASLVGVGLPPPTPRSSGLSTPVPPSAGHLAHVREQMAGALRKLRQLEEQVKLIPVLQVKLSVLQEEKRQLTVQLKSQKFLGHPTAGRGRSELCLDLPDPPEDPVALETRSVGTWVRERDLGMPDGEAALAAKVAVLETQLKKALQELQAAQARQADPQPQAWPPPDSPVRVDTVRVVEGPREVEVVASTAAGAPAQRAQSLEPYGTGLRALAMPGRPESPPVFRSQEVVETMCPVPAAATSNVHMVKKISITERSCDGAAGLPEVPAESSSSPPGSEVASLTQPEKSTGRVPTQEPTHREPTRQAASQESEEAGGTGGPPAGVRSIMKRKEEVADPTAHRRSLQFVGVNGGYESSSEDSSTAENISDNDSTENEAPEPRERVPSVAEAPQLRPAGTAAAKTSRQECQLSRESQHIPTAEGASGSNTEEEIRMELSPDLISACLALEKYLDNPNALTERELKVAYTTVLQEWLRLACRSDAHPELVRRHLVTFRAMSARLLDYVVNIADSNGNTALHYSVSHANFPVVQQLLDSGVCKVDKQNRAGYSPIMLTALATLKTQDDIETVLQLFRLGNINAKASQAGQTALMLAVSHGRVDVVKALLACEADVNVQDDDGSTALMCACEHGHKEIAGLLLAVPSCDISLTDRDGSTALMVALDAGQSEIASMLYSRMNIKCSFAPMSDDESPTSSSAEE
Sequence of CCDC14, Q49A88-3 (Q49A88 other isoform, or with tags, fused parts or gaps): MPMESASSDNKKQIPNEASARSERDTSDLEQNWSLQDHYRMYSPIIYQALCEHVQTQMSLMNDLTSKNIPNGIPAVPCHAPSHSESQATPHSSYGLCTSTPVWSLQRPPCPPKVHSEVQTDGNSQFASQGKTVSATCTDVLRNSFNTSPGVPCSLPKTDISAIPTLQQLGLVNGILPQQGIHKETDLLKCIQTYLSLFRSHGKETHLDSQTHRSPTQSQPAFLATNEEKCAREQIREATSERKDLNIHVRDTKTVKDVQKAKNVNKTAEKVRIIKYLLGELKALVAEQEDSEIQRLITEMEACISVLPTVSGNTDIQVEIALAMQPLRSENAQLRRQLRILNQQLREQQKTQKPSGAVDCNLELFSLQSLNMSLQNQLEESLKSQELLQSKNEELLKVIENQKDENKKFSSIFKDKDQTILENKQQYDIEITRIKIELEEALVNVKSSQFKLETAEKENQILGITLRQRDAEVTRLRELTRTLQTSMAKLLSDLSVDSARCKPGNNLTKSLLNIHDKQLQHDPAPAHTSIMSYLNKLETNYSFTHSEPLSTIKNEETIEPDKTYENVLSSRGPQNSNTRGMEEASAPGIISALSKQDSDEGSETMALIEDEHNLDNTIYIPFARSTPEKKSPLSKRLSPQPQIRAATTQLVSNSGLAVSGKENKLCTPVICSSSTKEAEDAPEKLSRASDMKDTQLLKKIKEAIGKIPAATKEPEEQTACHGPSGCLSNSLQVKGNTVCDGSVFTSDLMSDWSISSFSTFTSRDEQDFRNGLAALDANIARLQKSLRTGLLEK
Sequence of thap1_human THAP1 (Q9NVV9 whole entry): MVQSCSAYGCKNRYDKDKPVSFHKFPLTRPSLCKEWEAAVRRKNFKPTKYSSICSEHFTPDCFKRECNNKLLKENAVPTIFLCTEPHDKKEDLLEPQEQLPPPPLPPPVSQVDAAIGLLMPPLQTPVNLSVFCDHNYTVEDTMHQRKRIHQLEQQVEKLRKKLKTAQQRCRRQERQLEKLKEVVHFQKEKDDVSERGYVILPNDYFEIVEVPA
Sequence of coha1_human COL17A1 (Q9UMD9 whole entry): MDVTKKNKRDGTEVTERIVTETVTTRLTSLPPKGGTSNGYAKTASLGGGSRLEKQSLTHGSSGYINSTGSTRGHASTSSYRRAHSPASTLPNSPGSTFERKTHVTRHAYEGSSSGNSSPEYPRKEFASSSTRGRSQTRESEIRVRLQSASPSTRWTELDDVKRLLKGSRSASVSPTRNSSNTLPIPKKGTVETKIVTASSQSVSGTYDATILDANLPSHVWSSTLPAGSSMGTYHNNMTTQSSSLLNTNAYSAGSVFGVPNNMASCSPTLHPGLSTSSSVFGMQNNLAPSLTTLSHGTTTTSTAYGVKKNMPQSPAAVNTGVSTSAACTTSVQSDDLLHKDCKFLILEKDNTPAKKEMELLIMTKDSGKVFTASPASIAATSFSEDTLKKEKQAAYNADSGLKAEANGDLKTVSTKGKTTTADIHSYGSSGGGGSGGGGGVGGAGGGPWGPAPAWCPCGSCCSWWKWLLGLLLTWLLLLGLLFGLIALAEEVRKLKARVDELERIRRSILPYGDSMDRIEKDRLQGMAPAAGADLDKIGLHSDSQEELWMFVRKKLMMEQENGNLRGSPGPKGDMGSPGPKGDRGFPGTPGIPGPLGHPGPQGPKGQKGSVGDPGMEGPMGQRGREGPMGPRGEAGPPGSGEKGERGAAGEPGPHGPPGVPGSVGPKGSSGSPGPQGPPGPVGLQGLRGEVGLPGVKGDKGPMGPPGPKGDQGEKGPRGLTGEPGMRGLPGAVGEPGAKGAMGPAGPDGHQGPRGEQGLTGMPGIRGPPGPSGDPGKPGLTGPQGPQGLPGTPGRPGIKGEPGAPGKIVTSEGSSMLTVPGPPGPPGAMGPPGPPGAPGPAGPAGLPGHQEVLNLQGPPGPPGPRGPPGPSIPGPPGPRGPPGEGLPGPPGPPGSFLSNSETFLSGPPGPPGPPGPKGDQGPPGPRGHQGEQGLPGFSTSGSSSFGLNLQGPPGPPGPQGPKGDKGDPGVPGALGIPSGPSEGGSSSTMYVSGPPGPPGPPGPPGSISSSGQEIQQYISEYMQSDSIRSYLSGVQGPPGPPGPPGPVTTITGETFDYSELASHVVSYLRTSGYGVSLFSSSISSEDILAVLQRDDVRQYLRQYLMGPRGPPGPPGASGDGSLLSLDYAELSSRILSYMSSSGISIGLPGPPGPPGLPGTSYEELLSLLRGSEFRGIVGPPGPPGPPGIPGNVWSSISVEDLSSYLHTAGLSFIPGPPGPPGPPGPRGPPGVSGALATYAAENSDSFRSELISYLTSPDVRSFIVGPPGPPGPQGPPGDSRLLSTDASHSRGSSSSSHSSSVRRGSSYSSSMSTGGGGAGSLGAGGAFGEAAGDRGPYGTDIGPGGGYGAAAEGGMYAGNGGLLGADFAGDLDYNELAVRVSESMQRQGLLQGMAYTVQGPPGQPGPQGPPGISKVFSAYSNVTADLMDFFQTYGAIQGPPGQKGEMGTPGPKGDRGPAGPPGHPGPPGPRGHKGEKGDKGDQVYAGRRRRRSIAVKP
Sequence of SYNGR1, O43759-2 (O43759 other isoform, or with tags, fused parts or gaps): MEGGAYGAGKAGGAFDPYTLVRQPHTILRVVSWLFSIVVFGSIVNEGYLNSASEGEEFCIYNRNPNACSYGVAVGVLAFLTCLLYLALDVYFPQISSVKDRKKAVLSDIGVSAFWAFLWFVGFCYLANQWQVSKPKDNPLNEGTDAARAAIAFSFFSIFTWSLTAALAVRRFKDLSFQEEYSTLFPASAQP

Bifunctional polynucleotide phosphatase/kinase (Homo sapiens), Q96T60 P20S
with no effect: tnip1_human TNIP1 | zn639_human ZNF639 | kank2_human KANK2 | car10_human CARD10 | zbt14_human ZBTB14 | pick1_human PICK1 | thap1_human THAP1 | coha1_human COL17A1 | cntrb_human CNTROB | xrcc4_human XRCC4 | CCDC14, Q49A88-3 | pnma5_human PNMA5 | sp4_human SP4 | ppip1_human PSTPIP1 | msd4_human MSANTD4 | crcm_human MCC | trbp2_human TARBP2 | tri37_human TRIM37 | CAMK2B, Q13554-3 | tbcd1_human TBC1D1 | klh12_human KLHL12 | TMEM239, Q8WW34-2 | IKZF1, Q13422-7 | syph_human SYP | fads6_human FADS6 | rprm_human RPRM | mgst2_human MGST2 | snx2_human SNX2 | sft2a_human SFT2D1 | sng3_human SYNGR3 | SYNGR1, O43759-2 | CCDC43 | flowr_human CACFD1

— IntAct's records for PubMed 32296183
